T1: APG08290.1 (Bacillus sp.)
T1 chain: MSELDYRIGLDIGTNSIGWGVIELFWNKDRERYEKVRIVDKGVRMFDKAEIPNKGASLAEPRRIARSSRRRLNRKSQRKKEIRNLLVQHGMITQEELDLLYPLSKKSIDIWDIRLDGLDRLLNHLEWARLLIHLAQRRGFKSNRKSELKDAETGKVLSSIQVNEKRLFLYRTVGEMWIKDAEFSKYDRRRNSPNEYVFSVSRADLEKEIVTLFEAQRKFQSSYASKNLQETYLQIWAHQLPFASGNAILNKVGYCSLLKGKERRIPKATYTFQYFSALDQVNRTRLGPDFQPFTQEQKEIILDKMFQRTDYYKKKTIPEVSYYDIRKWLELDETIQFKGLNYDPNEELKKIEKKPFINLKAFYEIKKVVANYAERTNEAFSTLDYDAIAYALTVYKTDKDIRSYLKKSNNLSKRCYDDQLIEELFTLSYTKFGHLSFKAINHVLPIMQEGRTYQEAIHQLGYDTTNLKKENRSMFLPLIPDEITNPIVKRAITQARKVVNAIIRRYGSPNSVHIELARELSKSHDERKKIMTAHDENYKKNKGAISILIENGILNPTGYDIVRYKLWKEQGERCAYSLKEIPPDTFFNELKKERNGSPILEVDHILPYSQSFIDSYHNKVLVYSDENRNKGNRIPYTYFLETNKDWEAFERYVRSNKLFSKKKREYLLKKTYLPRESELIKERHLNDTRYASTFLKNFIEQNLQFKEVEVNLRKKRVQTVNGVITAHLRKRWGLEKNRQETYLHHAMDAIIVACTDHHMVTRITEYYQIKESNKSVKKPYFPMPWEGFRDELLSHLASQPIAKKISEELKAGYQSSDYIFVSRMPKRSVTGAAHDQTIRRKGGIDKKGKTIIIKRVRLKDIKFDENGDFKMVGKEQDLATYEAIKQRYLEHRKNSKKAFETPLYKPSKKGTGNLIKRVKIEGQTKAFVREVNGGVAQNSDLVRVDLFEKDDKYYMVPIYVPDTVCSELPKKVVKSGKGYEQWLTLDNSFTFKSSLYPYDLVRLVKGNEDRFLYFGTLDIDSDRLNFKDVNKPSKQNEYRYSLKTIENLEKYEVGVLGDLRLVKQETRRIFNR

T2: APG08290.1-del
T2 chain: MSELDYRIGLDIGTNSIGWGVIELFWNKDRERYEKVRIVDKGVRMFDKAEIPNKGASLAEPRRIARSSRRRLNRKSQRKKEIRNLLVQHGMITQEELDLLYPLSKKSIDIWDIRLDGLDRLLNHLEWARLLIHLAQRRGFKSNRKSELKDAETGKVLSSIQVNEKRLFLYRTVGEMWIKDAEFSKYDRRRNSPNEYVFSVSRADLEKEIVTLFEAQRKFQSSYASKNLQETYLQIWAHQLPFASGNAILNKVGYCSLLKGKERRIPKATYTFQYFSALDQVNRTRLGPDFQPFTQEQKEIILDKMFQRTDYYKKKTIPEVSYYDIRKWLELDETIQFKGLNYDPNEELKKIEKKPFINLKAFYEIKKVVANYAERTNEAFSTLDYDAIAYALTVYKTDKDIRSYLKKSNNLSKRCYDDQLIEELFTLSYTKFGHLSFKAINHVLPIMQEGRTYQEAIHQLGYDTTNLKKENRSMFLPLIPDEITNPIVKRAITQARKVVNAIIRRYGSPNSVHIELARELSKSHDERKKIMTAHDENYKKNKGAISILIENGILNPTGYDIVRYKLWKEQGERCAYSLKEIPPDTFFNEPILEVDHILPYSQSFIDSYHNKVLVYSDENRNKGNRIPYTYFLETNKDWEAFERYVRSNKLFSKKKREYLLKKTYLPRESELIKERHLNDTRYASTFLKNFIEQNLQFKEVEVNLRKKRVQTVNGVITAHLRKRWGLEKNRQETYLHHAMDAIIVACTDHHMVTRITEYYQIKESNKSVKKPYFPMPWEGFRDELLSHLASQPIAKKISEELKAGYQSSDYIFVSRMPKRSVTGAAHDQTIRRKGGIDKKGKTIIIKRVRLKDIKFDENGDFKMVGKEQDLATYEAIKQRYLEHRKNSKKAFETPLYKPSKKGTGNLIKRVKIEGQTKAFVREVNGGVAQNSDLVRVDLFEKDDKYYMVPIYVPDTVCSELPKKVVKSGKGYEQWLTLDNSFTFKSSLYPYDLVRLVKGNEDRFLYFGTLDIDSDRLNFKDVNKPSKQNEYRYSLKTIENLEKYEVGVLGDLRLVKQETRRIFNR

T3: APG07433.1 (Bacillus sp.)
T3 chain: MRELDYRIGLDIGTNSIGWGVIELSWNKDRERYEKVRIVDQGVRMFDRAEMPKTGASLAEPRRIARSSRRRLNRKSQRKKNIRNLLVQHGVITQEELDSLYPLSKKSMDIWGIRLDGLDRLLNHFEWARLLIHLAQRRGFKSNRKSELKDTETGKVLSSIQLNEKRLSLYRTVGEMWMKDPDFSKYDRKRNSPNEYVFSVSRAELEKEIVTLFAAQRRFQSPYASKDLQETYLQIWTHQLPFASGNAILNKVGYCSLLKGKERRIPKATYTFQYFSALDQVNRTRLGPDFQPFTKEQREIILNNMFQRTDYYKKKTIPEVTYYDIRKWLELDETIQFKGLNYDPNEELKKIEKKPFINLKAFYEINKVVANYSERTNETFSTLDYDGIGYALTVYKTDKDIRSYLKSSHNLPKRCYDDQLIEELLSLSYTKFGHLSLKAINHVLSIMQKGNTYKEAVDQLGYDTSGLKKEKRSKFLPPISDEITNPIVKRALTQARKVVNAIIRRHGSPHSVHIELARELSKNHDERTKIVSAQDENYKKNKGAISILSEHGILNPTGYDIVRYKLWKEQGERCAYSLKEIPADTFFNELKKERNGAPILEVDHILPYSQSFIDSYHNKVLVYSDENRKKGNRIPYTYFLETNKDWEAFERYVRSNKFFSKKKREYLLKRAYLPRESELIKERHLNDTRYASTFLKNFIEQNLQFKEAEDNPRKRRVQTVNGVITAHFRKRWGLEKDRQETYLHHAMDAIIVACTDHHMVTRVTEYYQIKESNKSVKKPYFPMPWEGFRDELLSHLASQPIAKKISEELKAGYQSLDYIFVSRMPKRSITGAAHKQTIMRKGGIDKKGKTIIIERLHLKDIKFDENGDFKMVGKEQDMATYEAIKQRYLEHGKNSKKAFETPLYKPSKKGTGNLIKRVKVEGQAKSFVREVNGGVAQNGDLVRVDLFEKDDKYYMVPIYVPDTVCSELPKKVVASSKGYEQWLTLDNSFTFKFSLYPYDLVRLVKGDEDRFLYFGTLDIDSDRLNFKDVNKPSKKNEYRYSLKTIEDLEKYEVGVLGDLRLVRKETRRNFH

T4: APG07433.1-del (residues 590-597 deleted)
T4 chain: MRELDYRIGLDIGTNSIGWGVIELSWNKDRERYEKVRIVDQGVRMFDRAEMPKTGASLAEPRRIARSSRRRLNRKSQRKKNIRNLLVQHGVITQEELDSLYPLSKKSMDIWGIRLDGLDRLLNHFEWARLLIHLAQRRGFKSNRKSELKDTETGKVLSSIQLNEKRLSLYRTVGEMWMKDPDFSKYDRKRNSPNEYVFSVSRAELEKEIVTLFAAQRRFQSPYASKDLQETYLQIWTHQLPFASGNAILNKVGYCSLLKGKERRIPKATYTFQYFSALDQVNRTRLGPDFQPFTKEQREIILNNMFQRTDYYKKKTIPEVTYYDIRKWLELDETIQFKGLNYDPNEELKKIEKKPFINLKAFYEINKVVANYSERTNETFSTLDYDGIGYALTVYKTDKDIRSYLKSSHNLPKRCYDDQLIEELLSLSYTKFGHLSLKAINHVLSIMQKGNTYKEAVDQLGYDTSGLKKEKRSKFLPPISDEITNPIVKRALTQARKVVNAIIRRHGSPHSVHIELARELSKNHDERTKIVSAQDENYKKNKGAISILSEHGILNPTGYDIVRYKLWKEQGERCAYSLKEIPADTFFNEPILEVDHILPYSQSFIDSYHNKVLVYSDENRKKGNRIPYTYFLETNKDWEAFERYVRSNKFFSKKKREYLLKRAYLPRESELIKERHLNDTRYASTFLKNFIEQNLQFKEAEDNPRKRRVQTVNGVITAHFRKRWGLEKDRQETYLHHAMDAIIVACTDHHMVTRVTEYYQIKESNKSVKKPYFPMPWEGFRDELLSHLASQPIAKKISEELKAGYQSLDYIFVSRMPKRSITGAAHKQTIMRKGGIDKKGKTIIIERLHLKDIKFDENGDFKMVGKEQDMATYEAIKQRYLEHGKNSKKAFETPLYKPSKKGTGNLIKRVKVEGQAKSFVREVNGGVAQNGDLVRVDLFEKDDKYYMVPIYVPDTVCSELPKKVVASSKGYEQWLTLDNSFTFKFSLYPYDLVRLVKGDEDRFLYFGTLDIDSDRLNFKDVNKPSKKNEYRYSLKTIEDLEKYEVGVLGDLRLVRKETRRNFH


What was measured:
[1] = target: T1, APG08290.1; experiment: cell_activity; editing rate HEK293T; PAM not stated
Description: (§1) Through alignment with closely related homologs, a unique 8 amino acid region at positions 590-597 was identified in APG07433.1 and its close homolog APG08290.1 (described in WO 2019/236566 and set forth herein as SEQ ID NO: 60). This region, set forth as SEQ ID NO: 365 for APG07433.1 and SEQ ID NO: 367 for APG08290.1, was removed from both proteins, resulting in variant RGNs APG07433.1-del (SEQ ID NO: 366) and APG08290.1-del (SEQ ID NO: 368). These deletion variants and their corresponding wild-type RGNs were assayed for editing activity in HEK293T cells using the guide RNAs indicated in Tables 32 and 33 following methods similar to those described in Example 1.

[2] = target: T2, APG08290.1-del; experiment: as above
Description: as §1

[3] = target: T3, APG07433.1; experiment: cell_activity; editing rate HEK293T; PAM 3' of target
Description: as §1

[4] = target: T4, APG07433.1-del (residues 590-597 …); experiment: as above
Description: as §1

| Binder | activity [1] | activity [2] | activity [3] | activity [4] |
| --- | --- | --- | --- | --- |
| SGN000930 sgRNA (Table 33) ; SGN000930 target (Table 33) (ssRNA ; dsDNA) RNA: GAACAACUCAAAUGGAAAUGAAUAUGUCAUAGUUCCAUGAAAGCCAAAAGUGGCUUUGAUGUUUCUAUGAUAAGGGUUUCGGCCCGUGGCGUCGGGGAUCGCCUGCCCAUUCCGAUGGGCUUCUCCCCAUUUAUU DNA 1: GAACAACTCAAATGGAAATGAATAT DNA 2: ATATTCATTTCCATTTGAGTTGTTC | 9.93% | 6.47% |  |  |
| SGN000169 sgRNA ; SGN000169 target (ssRNA ; dsDNA) RNA: CACAUCUCGAGCAAGACGUUGUCAUAGUUCCAUUAAAGCCAAAAGUGGCUUUGAUGUUUCUAUGAUAAGGGUUUCGACCCGUGGCGUCGGGGAUCGCCUGCCCAUUGAAAUGGGCUUCUCCCCAUUUAUU DNA 1: CACATCTCGAGCAAGACGTT DNA 2: AACGTCTTGCTCGAGATGTG |  |  | 13.4% | 15.5% |
| SGN000929 sgRNA ; SGN000929 target (ssRNA ; dsDNA) RNA: AUCUGGAGGGAACUUACAGCAUAUGGUCAUAGUUCCAUGAAAGCCAAAAGUGGCUUUGAUGUUUCUAUGAUAAGGGUUUCGGCCCGUGGCGUCGGGGAUCGCCUGCCCAUUCCGAUGGGCUUCUCCCCAUUUAUU DNA 1: ATCTGGAGGGAACTTACAGCATATG DNA 2: CATATGCTGTAAGTTCCCTCCAGAT | 1.83% | 0.61% |  |  |
| SGN000186 sgRNA (Table 32) ; SGN000186 target (Table 32) (ssRNA ; dsDNA) RNA: GGACAGUGCGCAUCUCCCUGGUCAUAGUUCCAUUAAAGCCAAAAGUGGCUUUGAUGUUUCUAUGAUAAGGGUUUCGACCCGUGGCGUCGGGGAUCGCCUGCCCAUUGAAAUGGGCUUCUCCCCAUUUAUU DNA 1: GGACAGTGCGCATCTCCCTG DNA 2: CAGGGAGATGCGCACTGTCC |  |  |  | 15.2% |
| SGN000139 sgRNA (Table 32) ; SGN000139 target (Table 32) (ssRNA ; dsDNA) RNA: AGGUUUUAAUGGCCCAGCCUGUCAUAGUUCCAUUAAAGCCAAAAGUGGCUUUGAUGUUUCUAUGAUAAGGGUUUCGACCCGUGGCGUCGGGGAUCGCCUGCCCAUUGAAAUGGGCUUCUCCCCAUUUAUU DNA 1: AGGTTTTAATGGCCCAGCCT DNA 2: AGGCTGGGCCATTAAAACCT |  |  | 11.1% |  |

— US20220348894, “DNA MODIFYING ENZYMES AND ACTIVE FRAGMENTS AND VARIANTS THEREOF AND METHODS OF USE” (LifeEDIT Therapeutics, Inc., published 2022)
